According to the nanobody polyreactivity screen of Harvey et al. (2022):

Assay: yeast display, Sf9 membrane polyspecificity reagent, FACS + sequencing; frameworks hold sequencing errors
Outline: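 Galactose-induced (36–48 hours) yeast carrying a synthetic nanobody display library were exposed to 10% biotinylated, detergent-solubilized Sf9 membrane reagent at 4 °C for 1 hour. FACS followed streptavidin microbead enrichment, using low and high (top ~1%) gates for expression (anti-HA) and reagent binding (streptavidin). Colony PCR, MiSeq 2 × 250 sequencing and CDR-length filtering followed. Labels for polyreactivity reflect the gate of origin.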

Sequence	polyreactivity (PSR sort gate)
QVQLVESGGGLVQAGGSLRLSCAASGRTFFGYAMGWYRQAPGKERELVAAISSRGDSTYYADSVKGRFTISRDNAKNTVYLQMNSLKPEDTAVYYCNTYSTVYSYDYDYWGQGTQVTVSS	low polyreactivity
QVQLVESGGGLVQAGGSLRLSCAASGRTFFGYAMGWYRQAPGKERELVAAITSSGGRTYYADSVKGRFTISRDNAKNTVYLQMNSLKPEDTAVYYCNTVLSFRSVNIYRGRGDYWGQGSQVTVSS	high polyreactivity
QVQLVESGGGLVQAGGSLRLSCAASGRTFFIYAMGWYRQAPGKERELVARITGGGRTYYADSVKGRFTISRDNAKNTVYLQMNSLKPEDTAVYYCAKRSYVTYPPYDYWGQGSQVTVSS	high polyreactivity
QVQLVESGGGLVQAGGSLRLSCAASGRTFFKNALGWYRQAPGKERELVASISSRSGTTYYADSVKGRFTISRDNAKNTVYLQMNSLKPEDTAVYYCAASRNRYSYGYWGQGTQVTVSS	high polyreactivity
QVQLVESGGGLVQAGGSLRLSCAASGRTFFKYDMGWYRQAPAKERELVAAITWTGGSTYYADSVKGRFTISRDYAKNTVYLQMNSLKPEDTAVYYCAAADYYYVEYDYWGQGTQVTVSS	low polyreactivity
QVQLVESGGGLVQAGGSLRLSCAASGRTFFKYVMGWYRQAPGKERELVAAISYRSGSTYYADSVKGRFTISRDNAKNTVYLQMNSLKPEDTAVYYCAKEPPPVKGDYWGQGTQVTVSS	low polyreactivity
QVQLVESGGGLVQAGGSLRLSCAASGRTFFLYAMGWYRQAPGKEREFVATISYGGGSTYYADSVKGRFTISRDNAKNTVYLQMNSLKPEDTAVYYCNALNTSQYAEGTSDYDGNMGYWGQGTQVTVSS	low polyreactivity
QVQLVESGGGLVQAGGSLRLSCAASGRTFFPYAMGWYRQAPGKERELVAAITRGGSTNYADSVKGRFTISRDNAKNTVYLQINSLKPEDTAVSYCATVVRYSNARGDYWGQGTQVTVSS	low polyreactivity
QVQLVESGGGLVQAGGSLRLSCAASGRTFFPYAMGWYRQAPGKERELVATIRYRGGSTSYADSVKGRFTISRDNAKNTVYLQMNSLKPEDTAVYYCAARLQRTPRVYSSYFEYDYWGHGTQVTVSS	low polyreactivity
QVQLVESGGGLVQAGGSLRLSCAASGRTFFRNAMGWYRQAPGKERELVAAISSSGGSTYADSVKGRFTISRDNAKNTVYLQMNSLKPEVTAVYYCATRFQYTRTWYSRKYDYWGQGTQVTVSS	high polyreactivity
QVQLVESGGGLVQAGGSLRLSCAASGRTFFRYAMGWYRQAPGKERELVASISGGITNYADSVKGRFTISRDNAQNTVYLQMNSLKPEDTAVYYCAADDYPYSYSSQFQYTGYEYWGQGTQVTVSS	low polyreactivity
QVQLVESGGGLVQAGGSLRLSCAASGRTFFRYVMGWYRQAPGKERELVAAISTRGGSTYYADSVKGRFTISRDNAKNTVYLQMNSLKPEDTAVYYCAARFKVRDYSYNYWGQGTQVTVSS	high polyreactivity
QVQLVESGGGLVQAGGSLRLSCAASGRTFFVNAMGWYRQAPGKERELVAGISIGGRTSYADSVKGRFTISRDNAKNTVYLQMNSLKPEDTAVYYCATSYFPWSRKRYGYWGQGTQVTVSS	high polyreactivity
QVQLVESGGGLVQAGGSLRLSCAASGRTFFVNAMGWYRQAPGKERELVAVISTSGGSTSYADSVKGRFTISRDNPKYTVYFQMNSLKPEDTAVYYCAALVLGPYVSSFVYQQDDSWGLGTQVTVSS	high polyreactivity
QVQLVESGGGLVQAGGSLRLSCAASGRTFFWYAMGWYRQAPGKEREFVADINSRGTSTYADSVKGRFTISRDNAKNTVYLQMNSLKPDDTAVYYCAAYRGHLKRYYYWGQGTQVTVSS	high polyreactivity
QVQLVESGGGLVQAGGSLRLSCAASGRTFFWYAMGWYRQAPGKERELVAAISSSTRTKYADSVKGRFTISRDNAKNTVYLQMNSLKPEDTAVYYCNAKGWVWPFPSYYPYDSWGQGTQVTVSS	high polyreactivity
QVQLVESGGGLVQAGGSLRLSCAASGRTFFYNAMGWYRQAPGKERELVATITWTGDSTYADSVKGRFTISRDNAKNTVYLQMNSLKPEDTAVYYCAAGKPVILTGDYDYWGQGTQVTVSS	low polyreactivity
